Results on 4 molecules are retold here after patent publication US20250172568A1 (TRUSTEES OF DARTMOUTH COLLEGE, published 2025).

For one assay, the target named is T1, FcγRI (human, UniProt P12314 16-288).
T1 construct: also called human FcγRI
Put plainly: BLI (Octet), mAb on HLA-A2 antigen tips, 292 nM FcγRI in solution.

Assay [1] addresses T2, FcγRIIIa V158 (recombinantly expressed, monomeric) (human, UniProt P08637 17-208).
T2 construct: also called biotinylated FcγRIIIa V158 tetramers
Put plainly: BLI (Octet), mAb on HLA-A2 antigen tips, monomeric FcγRIIIa V158; dissociation rate printed as 'KD'; the value is the MEAN over afucosylated IgG1 and IgG3. (In general: BLI is a label-free optical method that tracks binding on a fibre tip over time.)
Description: (§1) Antibody-Receptor dissociation kinetics measurement by Biolayer Interferometry (BLI). […] Streptavidin tips were first coated with biotinylated HLA-A2 antigens. After establishing a signal baseline, the tips were loaded with HLA-A2-specific antibodies, dipped into the buffer for baseline, and then finally dipped into a solution of recombinantly expressed FcγRIIIa V158 monomers. Following receptor association, tips were dipped into a buffer, which allowed receptor dissociation. The dissociation rate of FcγR was defined relatively to a reference tip which was not dipped into the receptor.
(§2) High Precision Streptavidin 2.0 (SAX2) biosensor tips (Sartorius) were used to determine the kinetics of HLA-A2-specific IgG binding to human FcγRIIIa and FcγRI by biolayer interferometry (BLI) on an Octet (Forte Bio) instrument. Streptavidin (SA) biosensor tips were first loaded with HLA-A2 antigen, followed by HLA-A2 antibody, and finally dipped into FcγR to study the antibody-receptor kinetics. Biosensors were equilibrated with 0.05% Tween-PBS for 60 s, loaded with 0.25 μg/mL biotinylated HLA-A2 antigen (in 0.05% Tween-PBS) until they reached the threshold of 1 nm, and then dipped into 0.05% Tween-PBS to reach baseline for 60 s. […]

For assay [2], the target named is T2, FcγRIIIa V158 (recombinantly expressed, …). Put plainly: BLI (Octet), mAb on HLA-A2 antigen tips, monomeric FcγRIIIa V158; dissociation rate printed as 'KD'; the value is the MEAN over unmodified IgG1 and IgG3.
Description: as §1, §2

As a reminder, the koff is the first-order rate constant of dissociation.

T1 sequence (P12314 16-288 limits assumed): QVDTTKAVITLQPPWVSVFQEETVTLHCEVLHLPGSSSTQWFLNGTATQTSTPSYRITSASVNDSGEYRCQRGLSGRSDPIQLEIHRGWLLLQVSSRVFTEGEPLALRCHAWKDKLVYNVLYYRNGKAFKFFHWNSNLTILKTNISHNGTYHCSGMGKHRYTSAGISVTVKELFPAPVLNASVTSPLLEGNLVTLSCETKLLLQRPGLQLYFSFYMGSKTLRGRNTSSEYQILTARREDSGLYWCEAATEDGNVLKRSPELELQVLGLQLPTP
T2 sequence (P08637 17-208 F176V limits assumed): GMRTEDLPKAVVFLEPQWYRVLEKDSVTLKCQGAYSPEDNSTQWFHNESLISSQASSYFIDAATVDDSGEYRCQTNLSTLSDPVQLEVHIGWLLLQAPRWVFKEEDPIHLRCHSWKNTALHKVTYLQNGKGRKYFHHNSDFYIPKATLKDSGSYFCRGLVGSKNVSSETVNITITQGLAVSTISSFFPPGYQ

B1: afucosylated BB7.2 IgG1 (HLA-A2-specific chimeric mAb) (antibody)
heavy: not shown
light: DVLMTQTPLSLPVSLGDQVSISCRSSQSIVHSNGNTYLEWYLQKPGQSPKLLIYKVSNRFSGVPDRFSGSGSGTDFTLKISRVEAEDLGVYYCFQGSHVPRTFGGGTKLEIKRADAAPTVSIFPPSSEQLTSGGASVVCFLNNFYPKDINVKWKIDGSERQNGVLNSWTDQDSKDSTYSMSSTLTLTKDEYERHNSYTCEATHKTSTSPIVKSFNRNEC
notes: also called afucosylated IgG1; afucosylated HLA-A2 mAb
With B1, the binding result with FcγRI is reported as “binds”. Moreover, the koff in assay [1] came to 0.021 s⁻¹.

B2: afucosylated BB7.2 IgG3 (HLA-A2-specific chimeric mAb) (antibody)
heavy: QVQLQQSGPELVKPGASVKMSCKASGYTFTSYHIQWVKQRPGQGLEWIGWIYPGDGSTQYNEKFKGKTTLTADKSSSTAYMLLSSLTSEDSAIYFCAREGTYYAMDYWGQGTSVTVSSAKTTPPSVYPLAPGCGDTTGSSVTLGCLVKGYFPESVTVTWNSGSLSSSVHTFPALLQSGLYTMSSSVTVPSSTWPSQTVTCSVAHPASSTTVDKKLELKTPLGDTTHTCPRCPEPKSCDTPPPCPRCPEPKSCDTPPPCPRCPEPKSCDTPPPCPRCPAPELLGGPSVFLFPPKPKDTLMISRTPEVTCVVVDVSHEDPEVQFKWYVDGVEVHNAKTKPREEQYNSTFRVVSVLTVLHQDWLNGKEYKCKVSNKALPAPIEKTISKTKGQPREPQVYTLPPSREEMTKNQVSLTCLVKGFYPSDIAVEWESSGQPENNYNTTPPMLDSDGSFFLYSKLTVDKSRWQQGNIFSCSVMHEALHNRFTQKSLSLSPGK
light: B1 light
notes: also called afucosylated IgG3; afucosylated HLA-A2 mAb
With B2, in the assay with FcγRI, the binding result is listed as “binds”. Besides, in assay [1], the koff amounted to 0.021 s⁻¹.

B3: BB7.2 IgG1 (HLA-A2-specific chimeric mAb, unmodified / fucosylated) (antibody)
heavy: not shown
light: B1 light
notes: also called HLA-A2 IgG1 mAb; unmodified HLA-A2 mAb
Consider B3, for which, in the assay with FcγRI, the binding result is “binds”. The koff in assay [2] is 0.46 s⁻¹.

B4: BB7.2 IgG3 (HLA-A2-specific chimeric mAb, unmodified / fucosylated) (antibody)
heavy: B2 heavy
light: B1 light
notes: also called HLA-A2 IgG3 mAb; unmodified HLA-A2 mAb
Regarding B4, in the assay with FcγRI, the binding result was “binds”. Moreover, the koff in assay [2] was found to be 0.46 s⁻¹.
